Results from US11994512B2, “Single-cell genomic methods to generate ex vivo cell systems that recapitulate in vivo biology with improved fidelity” (Massachusetts Institute of Technology, priority 2018, dated 2024).

System: intracellular proteome of ENR+CD and ENR organoids
Assay: LC-MS/MS TMT proteomics of ENR+CD versus ENR organoids
Type: cell-based, C57BL/6 mice
Details: for change: up = enriched in ENR+CD, down = enriched in ENR, FDR<0.05 and log fold change cut-off
[1] = ENR+CD versus ENR organoids, sample pairs in aggregate (n=4, 2 technical replicates from two biological donors)
[2] = protein abundance ratio ENR+CD versus ENR organoids, sample pair M1-1, LC-MS/MS TMT proteomics
[3] = protein abundance ratio ENR+CD versus ENR organoids, sample pair M1-2, LC-MS/MS TMT proteomics
[4] = protein abundance ratio ENR+CD versus ENR organoids, sample pair M2-1, LC-MS/MS TMT proteomics
[5] = protein abundance ratio ENR+CD versus ENR organoids, sample pair M2-2, LC-MS/MS TMT proteomics

Molecule | Average logFC (protein abundance, ENR+CD versus ENR organoids, aggregate of the four sample pairs) | M1-1 Log2 Median Normalized (protein abundance, ENR+CD versus ENR organoids, replicate M1-1, log2 ratio) | M1-2 Log2 Median Normalized (protein abundance, ENR+CD versus ENR organoids, replicate M1-2, log2 ratio) | M2-1 Log2 Median Normalized (protein abundance, ENR+CD versus ENR organoids, replicate M2-1, log2 ratio) | M2-2 Log2 Median Normalized (protein abundance, ENR+CD versus ENR organoids, replicate M2-2, log2 ratio) | change | Average logFC [1] | M1-1 Log2 Median Normalized [2] | M1-2 Log2 Median Normalized [3] | M2-1 Log2 Median Normalized [4] | M2-2 Log2 Median Normalized [5]
Q3V3I2 (protein, UniProt Q3V3I2 1-354, looked up, full-length) MGSGISSESKESARRSKELEKKLQEDAERDARTVKLLLLGAGESGKSTIVKQMKIIHKNGYSKQECMEFKAVIYSNTLQSILAIVKAMATLGIDYVNPRSREDQEQLHSMANTLEDGDMTPQLAEIIKRLWGDPGIQACFERASEYQLNDSAAYYLNDLDRLTAPGYVPNEQDVLHSRVKTTGIIETQFSFKDLNFRMFDVGGQRSERKKWIHCFEGVTCIIFCAALSAYDMVLVEDEEVNRMHESLHLFNSICNHKYFATTSIVLFLNKKDLFQEKVAKVHLSICFPEYTGPNTFEDAGNYIKNQFLDLNLKKEDKEIYSHMTCATDTQNVKFVFDAVTDIIIKENLKDCGLF | −1.949 | −1.715 | −1.092 | −2.2685 | −2.719 | down |  |  |  |  | 
Q4V9W2 (protein, UniProt Q4V9W2 1-153, looked up, full-length) MAVPGCNKDNVRAGCRKCGYPGHLTFECRNFLRVDPKRDIVLDVSSTSSEDSDEENEELNKLQALQEKRINEEEEKKKEKSREKIKLKKRRKRSYSSATEEDSAKQKKQKYQKKEKKKEKKNKSKKGKHHKKEKKKRKKEKRSSPYHSELTKK |  |  |  |  |  | down | −1.36 | −1.902 | −0.824 | −1.2515 | −1.464
Q4VAH7 (protein, UniProt Q4VAH7 1-463, looked up, full-length) MGQDAFMELLRSMVGLSLCKIHLLLIAGSCLGLKVTVPSYTVHGIRGQALYLPVHYGFHTPASDIQIIWLFERSHTMPKYLLGSVNKSVVPDLEYQHKFTMMPPNASLLINPLQFTDEGNYIVKVNIQGNGTLSASQKIQVTVDDPVMKPMVQFHPASGAVEYVGNITLTCQVEGGTRLVYQWRKSGKPISINSSHSFSPQNNTLWIVPVTKEDIGNYTCLVSNPVSEMESDIIMPTIYYGPYGLQVNSDKGLKVGEVFTVDLGEAVLFDCSADSYPPNTYSWIQRSDNTTHVIKHGPHLEVASEKVAQKTADYVCCAYNNITGRRDETRFTVIITSVGLEKLAQRGKSLSPLASITGISLFLIISMCLLFLWKKYQPYKAIRQKLEGRPESEYRKAQTFSGHEDALSDFGIYEFVTFPDASGVSRMSSRSSPASDGVTGQDIHGTIYEVIQHIPEQQQENTE |  |  |  |  |  | up | 1.418 | 1.047 | 1.639 | 1.2475 | 1.739
Q52KI8 (protein, UniProt Q52KI8 1-946, looked up, full-length) MDAGFFRGTSAEQDNRFSNKQKKLLKQLKFAECLEKKVDMSKVNLEVIKPWITKRVTEILGFEDDVVIEFIFNQLEVKNPDSKMMQINLTGFLNGKNAREFMGELWPLLLSAQENIAGIPSAFLELKKEEIKQRQIEQEKLASLKKQDEDKDKRDKEEKESSREKRERSRSPRRRKSRSPSPRRRSSPVRRERKRSHSRSPRHRTKSRSPSPAPEKKEKSPELPEPSVRMKDSSVQEATSTSDILKAPKPEPVPEPKEPSPEKNSKKEKEKTRPRSRSRSKSRSRTRSRSPSHTRPRRRHRSRSRSYSPRRRPSPRRRPSPRRRTPPRRMPPPPRHRRSRSPGRRRRRSSASLSGSSSSSSSSRSRSPPKKPPKRTSSPPRKTRRLSPSASPPRRRHRPSSPATPPPKTRHSPTPQQSNRTRKSRVSVSPGRTSGKVTKHKGTEKRESPSPAPKPRKVELSESEEDKGSKMAAADSVQQRRQYRRQNQQSSSDSGSSSTSEDERPKRSHVKNGEVGRRRRHSPSRSASPSPRKRQKETSPRMQMGKRWQSPVTKSSRRRRSPSPPPARRRRSPSPAPPPPPPPPPPRRRRSPTPPPRRRTPSPPPRRRSPSPRRYSPPIQRRYSPSPPPKRRTASPPPPPKRRASPSPPPKRRVSHSPPPKQRSPTVTKRRSPSLSSKHRKGSSPGRSTREARSPQPNKRHSPSPRPRAPQTSSPPPVRRGASASPQGRQSPSPSTRPIRRVSRTPEPKKIKKTAMATQRNIRRVSKSPKADSLSRAASPSPQSVRRVSSSRSVSGSPEPAAKKPPAPPSPVQSQSPSTNWSPAVPAKKAKSPTPSLSPARNSDQEGGGKKKKKKKDKKHKKDKKHKKHKKHKKEKAVTIATPATAAPAAVSAATTTSAQEEPAAAPEPRKETESEAEDDNLDDLERHLREKALRSMRKAQVSPQS |  |  |  |  |  | down | −1.144 | −1.036 | −0.819 | −1.2825 | −1.437
Q571E4 (protein, UniProt Q571E4 1-520, looked up, full-length) MAACTAAQQLLLVLSALGLLAAGAPQPPNIVLLLMDDMGWGDLGVNGEPSRETPNLDRMAAEGMLFPSFYSANPLCSPSRAALLTGRLPIRNGFYTTNAHARNAYTPQEIMGGIPNSEHLLPELLKKAGYTNKIVGKWHLGHRPQFHPLKHGFDEWFGSPNCHFGPYDNKAKPNIPVYRDWEMVGRFYEEFPINRKTGEANLTQLYTQEALDFIQTQHARQSPFFLYWAIDATHAPVYASRQFLGTSLRGRYGDAVREIDDSVGKILSLLQNLGISKNTFVFFTSDNGAALISAPNEGGSNGPFLCGKQTTFEGGMREPAIAWWPGHIAAGQVSHQLGSIMDLFTTSLSLAGLKPPSDRVIDGLDLLPTMLKGQMMDRPIFYYRGNTLMAVTLGQYKAHLWTWTNSWEEFTQGTDFCPGQNVSGVTTHTQEEHTELPLIFHLGRDPGERFPLSFHSDEYQDALSRTTQVVQEHQKSLVPGQPQLNVCNQAVMNWAPPGCEKLGKCLTPPESVPEKCFWAH |  |  |  |  |  | up | 1.207 | 1.473 | 0.565 | 1.3465 | 1.206
